From patent publication US20190194338A1 (Seagen, published 2019)

Columns and labels:
[1] = target: T1, FcγRIIIa (hCD16) on transfected CHO cells (human, UniProt P08637 17-254); assay: competition with labelled h00 on CHO cells with FcγRIIIa
T1 construct: whole, on cells; Also expressed on Jurkat effector cells in the signalling assay; also called human FcRIIIa

[2] = target: T2, human BCMA expressed on cells (NCI-H929, U266, JJN3, 293:BCMA) (human, UniProt Q02223 1-184); assay: binding to U266 cells
T2 construct: Endogenous BCMA on myeloma lines or full-length BCMA clone in HEK 293 cells; also called B-cell maturation antigen; CD269
T2 sequence: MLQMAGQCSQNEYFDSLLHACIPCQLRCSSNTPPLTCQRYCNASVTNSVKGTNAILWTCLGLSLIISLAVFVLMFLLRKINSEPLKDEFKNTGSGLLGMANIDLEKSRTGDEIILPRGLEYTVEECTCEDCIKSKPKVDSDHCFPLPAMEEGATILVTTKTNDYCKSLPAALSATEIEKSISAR

[3] = target: T2, human BCMA expressed on cells …; assay: binding to JJN3 cells

T1 sequence (P08637 17-254): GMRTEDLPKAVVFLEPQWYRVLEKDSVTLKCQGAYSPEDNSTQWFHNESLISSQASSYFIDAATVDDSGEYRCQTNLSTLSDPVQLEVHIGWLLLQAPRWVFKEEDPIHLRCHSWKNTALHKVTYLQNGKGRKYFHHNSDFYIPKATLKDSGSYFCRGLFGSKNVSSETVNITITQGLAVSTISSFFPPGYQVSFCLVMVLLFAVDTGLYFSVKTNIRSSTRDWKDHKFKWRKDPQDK

B1: cSG16.17 wild-type (antibody)
heavy: not shown
light: DIQMTQSPASLSASLGETVSIECLASEDISDDLAWYQQKSGKSPQVLVYTTSRLQDGVPSRFSGSGSGTRFSLKIIVMQPEDEADYFCQQTYKFPPTFGAGTRLDLKR
notes: domain: wild-type human IgG1 heavy chain constant domains; Rat VH and VL fused to human IgG1 and kappa constants; also called chimeric SG16.17; cSG16.17 G1 WT; not shown: human kappa light chain constant domain
binding result [1]: binds
Kd [2]: ~10 nM
Kd [3]: ~15 nM

B2: cSG16.17 mutant (antibody, name in EU numbering)
heavy: QVNLLQSRAALVKPGASVKLSCEASGYTFTDYYIHWVKQSHGKSLEWIGYINPNSGYTKYNENFKTKATMTADKSTNTAYVELSRLTSEDSATYFCTRYMWERVTGFFDFWGPGTKVTVSSASTKGPSVFPLAPSSKSTSGGTAALGCLVKDYFPEPVTVSWNSGALTSGVHTFPAVLQSSGLYSLSSVVTVPSSSLGTQTYICNVNHKPSNTKVDKKVEPKSCDKTHTCPPCPAPELLGGPDVFLFPPKPKDTLMISRTPEVTCVVVDVSHEDPEVKFNWYVDGVEVHNAKTKPREEQYNSTYRVVSVLTVLHQDWLNGKEYKCKVSNKALPLPEEKTISKAKGQPREPQVYTLPPSRDELTKNQVSLTCLVKGFYPSDIAVEWESNGQPENNYKTTPPVLDSDGSFFLYSKLTVDKSRWQQGNVFSCSVMHEALHNHYTQKSLSLSPGK
light: DIQMTQSPASLSASLGETVSIECLASEDISDDLAWYQQKSGKSPQVLVYTTSRLQDGVPSRFSGSGSGTRFSLKIIVMQPEDEADYFCQQTYKFPPTFGAGTRLDLKR
notes: domain: human IgG1 heavy chain constant domains; Positions of the Fc mutations are EU numbers, not positions on the UniProt entry; also called cSG16.17 S239D:A330L:I332E; chimeric SG16.17 IgG1 S239D, A330L, I332E; not shown: human kappa light chain constant domain
binding result [1]: binds
